Reference: patent publication US20080118529

T1: Ovalbumin (chicken egg albumin, OVA, Sigma A5503), carefully dissolved, P01012
T1 chain: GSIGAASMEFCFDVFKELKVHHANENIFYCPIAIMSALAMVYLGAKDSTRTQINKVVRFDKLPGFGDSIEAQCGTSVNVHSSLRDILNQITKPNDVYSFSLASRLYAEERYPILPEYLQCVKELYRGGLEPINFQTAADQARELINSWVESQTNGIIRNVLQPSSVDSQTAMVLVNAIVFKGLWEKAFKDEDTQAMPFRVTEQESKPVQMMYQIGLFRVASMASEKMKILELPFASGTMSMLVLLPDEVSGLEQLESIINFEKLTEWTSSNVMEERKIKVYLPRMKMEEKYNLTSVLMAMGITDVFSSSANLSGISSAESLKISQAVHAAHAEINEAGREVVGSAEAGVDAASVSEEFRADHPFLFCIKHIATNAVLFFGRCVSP

T2: Amyloid-like misfolded OVA (DOVA), obtained by cyclic thermal misfolding, P01012
T2 chain: T1 chain

T3: recombinant human β2-glycoprotein I (made in insect cells), P02749
T3 chain: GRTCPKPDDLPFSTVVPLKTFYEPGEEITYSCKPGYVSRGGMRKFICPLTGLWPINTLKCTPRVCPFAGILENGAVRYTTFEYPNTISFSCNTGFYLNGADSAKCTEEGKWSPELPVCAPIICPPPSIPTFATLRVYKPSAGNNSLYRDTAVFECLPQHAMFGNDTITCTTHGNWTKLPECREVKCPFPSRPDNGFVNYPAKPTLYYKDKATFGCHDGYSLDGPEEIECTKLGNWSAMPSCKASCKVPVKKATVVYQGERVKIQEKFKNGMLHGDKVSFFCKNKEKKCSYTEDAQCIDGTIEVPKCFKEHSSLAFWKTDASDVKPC

T4: β2-glycoprotein I purified from fresh human plasma, P02749
T4 chain: T3 chain

T5: human β2-Glycoprotein I pre-incubated with cardiolipin vesicles (CL-β2gpi), P02749
T5 chain: T3 chain

T6: amyloid fibrin peptide FP13 K157G, P02671
T6 chain: KVQHIQLLQGNVR

T7: mouse non-amyloidogenic IAPP (20-29) core
T7 chain: SNNLGPVLPP

T8: non-amyloid fragment FP10 of human fibrin α-chain (148-157)
T8 chain: KRLEVDIDIK

T9: laminin α1-chain (2097-2108) amyloid core peptide
T9 chain: AASIKVAVSADR

T10: amyloid fragment of transthyretin
T10 chain: YTIAALLSPYS

B1: Tissue-type plasminogen activator (tPA, Actilyse, Boehringer-Ingelheim) (protein)
chain: SYQVICRDEKTQMIYQQHQSWLRPVLRSNRVEYCWCNSGRAQCHSVPVKSCSEPRCFNGGTCQQALYFSDFVCQCPEGFAGKCCEIDTRATCYEDQGISYRGTWSTAESGAECTNWNSSALAQKPYSGRRPDAIRLGLGNHNYCRNPDRDSKPWCYVFKAGKYSSEFCSTPACSEGNSDCYFGNGSAYRGTHSLTESGASCLPWNSMILIGKVYTAQNPSAQALGLGKHNYCRNPDGDAKPWCHVLKNRRLTWEYCDVPSCSTCGLRQYSQPQFRIKGGLFADIASHPWQAAIFAKHRRSPGERFLCGGILISSCWILSAAHCFQERFPPHHLTVILGRTYRVVPGEEEQKFEVEKYIVHKEFDDDTYDNDIALLQLKSDSSRCAQESSVVRTVCLPPADLQLPDWTECELSGYGKHEALSPFYSERLKEAHVRLYPSSRCTSQHLLNRTVTDNMLCAGDTRSGGPQANLHDACQGDSGGPLVCLNDGRMTLVGIISWGLGCGQKDVPGVYTKVTNYLDWIRDNMRP
B2: human factor XII from plasma (Calbiochem, #233490) (protein)
chain: IPPWEAPKEHKYKAEEHTVVLTVTGEPCHFPFQYHRQLYHKCTHKGRPGPQPWCATTPNFDQDQRWGYCLEPKKVKDHCSKHSPCQKGGTCVNMPSGPHCLCPQHLTGNHCQKEKCFEPQLLRFFHKNEIWYRTEQAAVARCQCKGPDAHCQRLASQACRTNPCLHGGRCLEVEGHRLCHCPVGYTGAFCDVDTKASCYDGRGLSYRGLARTTLSGAPCQPWASEATYRNVTAEQARNWGLGGHAFCRNPDNDIRPWCFVLNRDRLSWEYCDLAQCQTPTQAAPPTPVSPRLHVPLMPAQPAPPKPQPTTRTPPQSQTPGALPAKREQPPSLTRNGPLSCGQRLRKSLSSMTRVVGGLVALRGAHPYIAALYWGHSFCAGSLIAPCWVLTAAHCLQDRPAPEDLTVVLGQERRNHSCEPCQTLAVRSYRLHEAFSPVSYQHDLALLRLQEDADGSCALLSPYVQPVCLPSGAARPSETTLCQVAGWGHQFEGAEEYASFLQEAQVPFLSLERCSAPDVHGSSILPGMLCAGFLEGGTDACQGDSGGPLVCEDQAAERRLTLQGIISWGSGCGDRNKPGVYTDVAYYLAWIREHTVS

Legend:
[1] = molecular target: Native murine serum albumin (nMSA, #126674, Calbiochem), P07724
[2] = molecular target: T1, Ovalbumin (chicken egg albumin, OVA, …)
[3] = molecular target: T2, Amyloid-like misfolded OVA (DOVA), …
[4] = molecular target: native human glucagon (freshly dissolved), P01275
[5] = molecular target: heat/acid-denatured human glucagon (Glucagen, Novo Nordisk), P01275
[6] = molecular target: T3, recombinant human β2-glycoprotein I …
[7] = molecular target: T4, β2-glycoprotein I purified from fresh …
[8] = molecular target: T5, human β2-Glycoprotein I pre-incubated …
[9] = molecular target: T6, amyloid fibrin peptide FP13 K157G, …
[10] = molecular target: albumin (ICN, 160069), P02769
[11] = molecular target: T7, mouse non-amyloidogenic IAPP (20-29) …
[12] = molecular target: T8, non-amyloid fragment FP10 of human …
[13] = molecular target: Glycated haemoglobin (Hb-AGE)
[14] = molecular target: T9, laminin α1-chain (2097-2108) amyloid …
[15] = molecular target: T10, amyloid fragment of transthyretin
[16] = molecular target: recombinant human collagen XVIII fragment endostatin (Entremed, Inc), P39060
recombinant human collagen XVIII fragment endostatin (Entremed, Inc), P39060, sequence (P39060 whole entry, looked up, the tested form may be a part): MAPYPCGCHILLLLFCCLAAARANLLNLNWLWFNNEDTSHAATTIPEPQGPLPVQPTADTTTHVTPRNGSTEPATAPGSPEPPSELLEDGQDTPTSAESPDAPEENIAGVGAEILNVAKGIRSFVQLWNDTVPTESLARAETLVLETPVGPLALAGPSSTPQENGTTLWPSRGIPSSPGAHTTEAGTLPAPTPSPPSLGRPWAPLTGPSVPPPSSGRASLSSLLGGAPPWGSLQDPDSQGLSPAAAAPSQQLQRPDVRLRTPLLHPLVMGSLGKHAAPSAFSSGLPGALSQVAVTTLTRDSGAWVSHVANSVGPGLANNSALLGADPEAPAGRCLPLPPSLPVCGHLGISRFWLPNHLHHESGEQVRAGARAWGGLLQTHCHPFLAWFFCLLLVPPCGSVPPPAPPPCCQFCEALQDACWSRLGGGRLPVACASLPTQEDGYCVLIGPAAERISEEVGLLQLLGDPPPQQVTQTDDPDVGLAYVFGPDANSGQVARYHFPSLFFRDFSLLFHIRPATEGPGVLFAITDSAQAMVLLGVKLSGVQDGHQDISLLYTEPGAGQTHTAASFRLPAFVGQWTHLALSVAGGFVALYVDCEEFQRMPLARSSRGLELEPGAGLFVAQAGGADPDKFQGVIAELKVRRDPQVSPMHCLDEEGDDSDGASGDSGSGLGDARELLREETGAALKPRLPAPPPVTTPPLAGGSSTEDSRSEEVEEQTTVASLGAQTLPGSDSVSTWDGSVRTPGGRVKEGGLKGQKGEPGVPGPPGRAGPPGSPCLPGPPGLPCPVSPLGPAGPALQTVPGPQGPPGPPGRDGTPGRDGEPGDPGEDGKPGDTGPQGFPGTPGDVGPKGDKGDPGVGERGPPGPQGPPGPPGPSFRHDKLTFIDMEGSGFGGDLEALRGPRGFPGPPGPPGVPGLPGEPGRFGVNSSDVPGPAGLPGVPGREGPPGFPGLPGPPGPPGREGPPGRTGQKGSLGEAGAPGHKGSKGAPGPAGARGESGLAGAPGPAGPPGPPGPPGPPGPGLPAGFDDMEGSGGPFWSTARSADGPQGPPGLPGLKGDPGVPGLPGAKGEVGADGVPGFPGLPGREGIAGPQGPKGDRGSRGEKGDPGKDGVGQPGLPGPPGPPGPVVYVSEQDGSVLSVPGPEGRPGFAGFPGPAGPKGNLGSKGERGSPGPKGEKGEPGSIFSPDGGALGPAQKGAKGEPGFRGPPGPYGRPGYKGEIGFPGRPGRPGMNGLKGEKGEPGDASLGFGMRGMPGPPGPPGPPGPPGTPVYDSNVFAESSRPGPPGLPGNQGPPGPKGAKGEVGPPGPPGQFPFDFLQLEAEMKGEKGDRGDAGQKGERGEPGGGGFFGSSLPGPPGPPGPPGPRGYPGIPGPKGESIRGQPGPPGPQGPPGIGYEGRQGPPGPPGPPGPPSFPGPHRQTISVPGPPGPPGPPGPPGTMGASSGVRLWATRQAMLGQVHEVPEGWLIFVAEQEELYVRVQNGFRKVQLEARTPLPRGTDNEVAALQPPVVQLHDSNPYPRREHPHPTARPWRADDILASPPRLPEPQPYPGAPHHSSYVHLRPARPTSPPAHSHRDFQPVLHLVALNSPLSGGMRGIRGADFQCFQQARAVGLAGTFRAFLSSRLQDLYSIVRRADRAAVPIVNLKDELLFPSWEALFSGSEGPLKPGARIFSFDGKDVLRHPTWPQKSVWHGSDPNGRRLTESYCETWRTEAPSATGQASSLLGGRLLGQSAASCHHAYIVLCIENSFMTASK

albumin (ICN, 160069), P02769, sequence (P02769 25-607): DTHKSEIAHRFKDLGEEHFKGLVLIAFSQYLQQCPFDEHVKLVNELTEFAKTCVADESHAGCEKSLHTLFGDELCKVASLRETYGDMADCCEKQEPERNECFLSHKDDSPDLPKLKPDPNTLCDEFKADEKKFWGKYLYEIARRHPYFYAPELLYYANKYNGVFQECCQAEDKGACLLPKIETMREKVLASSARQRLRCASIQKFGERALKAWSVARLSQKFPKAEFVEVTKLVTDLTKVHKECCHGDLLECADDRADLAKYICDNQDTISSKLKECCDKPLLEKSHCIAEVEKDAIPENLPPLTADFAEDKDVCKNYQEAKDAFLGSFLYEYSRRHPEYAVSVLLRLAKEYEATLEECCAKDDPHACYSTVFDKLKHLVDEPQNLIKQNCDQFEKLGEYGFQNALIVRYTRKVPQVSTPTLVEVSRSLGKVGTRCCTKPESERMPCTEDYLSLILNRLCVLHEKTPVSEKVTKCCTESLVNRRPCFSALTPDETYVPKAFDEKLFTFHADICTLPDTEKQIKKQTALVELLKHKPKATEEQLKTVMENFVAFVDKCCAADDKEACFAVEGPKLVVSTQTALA
Native murine serum albumin (nMSA, #126674, Calbiochem), P07724, sequence (P07724 25-608): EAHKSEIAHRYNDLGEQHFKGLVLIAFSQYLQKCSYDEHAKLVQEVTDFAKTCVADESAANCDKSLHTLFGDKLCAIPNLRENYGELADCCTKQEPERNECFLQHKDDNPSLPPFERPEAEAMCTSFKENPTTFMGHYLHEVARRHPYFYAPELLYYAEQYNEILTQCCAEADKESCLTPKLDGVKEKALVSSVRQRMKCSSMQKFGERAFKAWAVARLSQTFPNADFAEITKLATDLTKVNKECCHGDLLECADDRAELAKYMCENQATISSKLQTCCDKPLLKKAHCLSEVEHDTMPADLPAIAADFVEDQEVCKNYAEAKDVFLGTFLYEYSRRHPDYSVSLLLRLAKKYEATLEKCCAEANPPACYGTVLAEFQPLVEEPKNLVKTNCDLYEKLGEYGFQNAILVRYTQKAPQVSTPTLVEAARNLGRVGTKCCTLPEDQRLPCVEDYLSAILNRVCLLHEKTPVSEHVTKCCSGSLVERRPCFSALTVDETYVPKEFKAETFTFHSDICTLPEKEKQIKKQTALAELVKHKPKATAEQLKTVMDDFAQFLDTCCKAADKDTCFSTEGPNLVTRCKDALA
native human glucagon (freshly dissolved), P01275, sequence (P01275 53-81): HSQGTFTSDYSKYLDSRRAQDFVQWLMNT

| Protein | Plg-activation assay [1] | tPA/plasminogen activation assay [2] | tPA/plasminogen activation assay [3] | Plg-activation assay [4] | Plg-activation assay [5] | tPA-mediated conversion of Plg to plasmin (substrate S-2251) [6] | tPA-mediated conversion of Plg to plasmin (substrate S-2251) [7] | chromogenic tPA/plasminogen activation assay with a plasmin substrate [8] | auto-activation of purified factor XII, substrate S-2222 [9] | factor XII and subsequent prekallikrein activity (Chromozym-PK) [10] | activation of factor XII, detected by the conversion of Chromozym-PK [11] | activation of factor XII, detected by the conversion of Chromozym-PK [12] | auto-activation of purified factor XII, substrate S-2222 [13] | activation of factor XII, detected by the conversion of Chromozym-PK [14] | activation of factor XII, detected by the conversion of Chromozym-PK [15] | factor XII and subsequent prekallikrein activity (Chromozym-PK) [16] |
| --- | --- | --- | --- | --- | --- | --- | --- | --- | --- | --- | --- | --- | --- | --- | --- | --- |
| B1 | also native albumin enhanced ThT fluorescence to some extent, but this was not reflected by stimulation of tPA activation | OVA displays characteristics that are a hallmark for the presence of at least a fraction of the molecules with crossbeta structure, as shown by ... the enhanced activation of tPA and plasminogen | After cyclic thermal misfolding, however, signals representative for crossbeta structure are far more pronounced with denatured OVA | at high glucagon concentration, also native glucagon has some tPA activating potential | In this way, a potent activator of tPA was obtained | Recombinant β2GPI, but not β2GPI purified from fresh plasma stimulate tPA-mediated conversion of Plg to plasmin | Recombinant β2GPI, but not β2GPI purified from fresh plasma stimulate tPA-mediated conversion of Plg to plasmin | Exposure of human β2gpi to cardiolipin renders the mixture with tPA/plasminogen activating properties | – | – | – | – | – | – | – | – |
| B2 | – | – | – | – | – | – | – | – | All three amyloid-like aggregates are able to induce factor XII auto-activation. FP13 K157G and Hb-AGE have a potency to induce auto-activation that is similar to the established surface activator DXS500k | Neither albumin or endostatin alone, nor kaolin or DXS500k alone are efficient activators of factor XII, whereas combinations of adjuvant and protein cofactor results in factor XII and subsequent prekallikrein activity | non-amyloid controls fibrin fragment FP10 and non-amyloid murine islet amyloid polypeptide mIAPP do not activate factor XII | non-amyloid controls fibrin fragment FP10 and non-amyloid murine islet amyloid polypeptide mIAPP do not activate factor XII | All three amyloid-like aggregates are able to induce factor XII auto-activation. FP13 K157G and Hb-AGE have a potency to induce auto-activation that is similar to the established surface activator DXS500k | cross-β structure conformation rich peptides laminin (LAM12) and transthyretin (TTR11) stimulate factor XII activation, to a similar extent as kaolin | cross-β structure conformation rich peptides laminin (LAM12) and transthyretin (TTR11) stimulate factor XII activation, to a similar extent as kaolin | Neither albumin or endostatin alone, nor kaolin or DXS500k alone are efficient activators of factor XII, whereas combinations of adjuvant and protein cofactor results in factor XII and subsequent prekallikrein activity |
